Results as given in the Human Domainome abundance scans (Beltran et al. 2025).

B1: Peroxisome proliferator-activated receptor delta, residues 71 to 145; numbered along this chain, Q03181 (parent)
chain: NMECRVCGDKASGFHYGVHACEGCKGFFRRTIRMKLEYEKCERSCKIQKKNRNKCQYCRFQKCLALGMSHNAIRF
B2: Arginine-glutamic acid dipeptide repeats protein, residues 502 to 543; numbered along this chain, Q9P2R6 (parent)
chain: LKGYACRHCFTTTSKDWHHGGRENILLCTDCRIHFKKYGELP

Variants of: B1
Assay: abundance fitness (aPCA) (normalised: wild type 0, dead -1); higher = more abundant; growth selection in yeast, the domain comes from the species named
Details: Homo sapiens

Abundance fitness of substitutions, site by site:
R43: P -0.168
C4: F -0.675
N1: V -0.141
G23: W 0.084

Variants of: B2
Assay: as above
Details: Homo sapiens

Abundance fitness of substitutions, site by site:
H19: P -0.046, E 0.02, Y -0.246, T 0.095, D -0.225, F -0.064, M 0.008, S -0.026, R -0.047, I -0.045, G -0.073, C -0.033, W -0.204, A -0.048, K -0.047
C6: R -0.996, Y -1.05, Q -0.894, T -0.902, V -1.12, H -0.601, E -0.702, A -0.969, L -1, W -1.28, K -0.886, G -0.878, S -0.939, F -1.03, M -1.1
F10: W -0.054, A 0.054, R -0.014, K 0.017, N -0.238, P -0.279, Q 0.03, M -0.083, C -0.036, H 0.134, I -0.352, D -0.08, T -0.099, L -0.068, V -0.331, S 0.015, Y -0.101
T13: W -0.31, M -0.185, C -0.164, E 0.014, Y -0.223, P -0.484, F -0.179, V -0.125, Q -0.039, R 0.012, K 0.018, N -0.043, H -0.045, I -0.282, L -0.223, A -0.054
T11: K -0.172, E -0.4, P -0.51, M -0.413, N -0.168, G -0.241, F -0.561, A -0.136, I -0.204, Y -0.607, W -0.589, V -0.195, Q -0.278, S -0.083, L -0.375, R -0.236, D -0.277, C -0.219
G3: Y -0.205, F -0.247, C -0.226, P -0.189, M -0.111, K -0.146, S -0.107, L -0.205, A -0.047, H -0.058, I -0.246, W -0.391, V -0.218, T -0.093, Q -0.373, R -0.135, E -0.2
H18: F -0.005, L -0.042, R -0.193, T -0.029, C -0.03, P -0.333, W -0.21, N -0.132, Q 0.09, I -0.07, D 0.115, G 0.057, A 0.09, K 0.055, Y -0.089, S 0.004
K2: P -0.357, M -0.09, A -0.116, N -0.046, Y -0.477, R -0.153, G -0.12, V -0.023, S -0.049, F -0.078, D -0.004, E -0.038, T -0.367, I -0.241, H -0.374, Q -0.107, W -0.401, L -0.196
L1: V 0.054, G 0.043, F 0.014, S -0.003, Q -0.245, W -0.187, M 0.076, R -0.083, T 0.066, A 0.158, I 0.149
A5: P -0.335, N -0.116, D -0.022, K -0.104, F 0.144, Q 0.039, C 0.032, V -0.039, L -0.018, G 0.012, S 0.007, W 0.014, T 0.04, R 0.012, M -0.046, H 0.044, Y -0.136
G21: D -0.236, A -0.142, E -0.154
C9: S -0.392, M -0.542, P -0.494, K -0.371, A -0.425, W -0.645, E -0.318, D -0.547, V -0.451, R -0.493, N -0.271, Y -0.426, T -0.44, G -0.455, L -0.517
R7: G 0.029, I -0.188, Y -0.056, Q 0.036, M -0.02, F -0.185, V -0.098, L -0.067, P -0.293, A 0.074, H -0.441, W -0.195, K 0.087, E 0.064, S 0.021, N -0.115, D -0.142
D16: C -0.633, A -0.358, Y -0.555, K -0.154, H -0.501, L -0.442, E -0.15, T -0.391, F -0.48, S -0.263, R -0.451, Q -0.449, V -0.412, G -0.342, N -0.277, W -0.515, P -0.701, M -0.397
H8: R -0.229, N 0.064, S -0.136, I -0.292, Q -0.307, G -0.222, F -0.387, E -0.348, A -0.189, T -0.428, W -0.044, C -0.259, M -0.347, Y -0.238, L -0.489, K -0.368, P -0.836
K15: N -0.324, Y -0.229, Q -0.049, V -0.091, M -0.064, S -0.162, G -0.174, T -0.002, A -0.107, I -0.222, P -0.095, D -0.099, W -0.489, R -0.053, C -0.313, E 0.007, H -0.041
W17: G -0.154, Q -0.213, K -0.274, D -0.197, P -0.149, L -0.186, V -0.157, M -0.195, R -0.276, N -0.276, A -0.191, S -0.198, C -0.295, T -0.227
Y4: A -0.198, H -0.084, R -0.155, V -0.181, M 0.046, N 0.165, Q -0.273, G -0.207, C -0.117, L -0.109, S -0.075, I -0.089, E -0.135, D -0.037, K -0.178, F -0.032, T -0.074, P -0.257, W -0.22
T12: M -0.241, L -0.338, Q -0.159, C -0.304, Y -0.549, K -0.135, P -0.317, V -0.343, S -0.205, D -0.141, G -0.312, R -0.141, N -0.251, W -0.669, E -0.175, F -0.314, A -0.234
G20: I -0.151, A -0.16, E -0.066, R -0.45, D 0.097, H -0.203, P -0.375, L -0.32, K -0.379, S -0.212, V -0.11, C -0.091, M -0.205, W -0.141, Y -0.422, T -0.292, Q -0.179
S14: K -0.066, M -0.455, V -0.476, W -0.657, L -0.536, G -0.291, E -0.223, A -0.228, C -0.315, P -0.361, T -0.226, F -0.516, I -0.454, R -0.451, D -0.073, Y -0.473
